Measured values reported in US20160368957A1.

Molecular target: recombinant human IL-17A (human) (UniProt Q16552)
Experiment: cell-based or functional assay

Chain of recombinant human IL-17A (human) (Q16552 20-155 limits assumed): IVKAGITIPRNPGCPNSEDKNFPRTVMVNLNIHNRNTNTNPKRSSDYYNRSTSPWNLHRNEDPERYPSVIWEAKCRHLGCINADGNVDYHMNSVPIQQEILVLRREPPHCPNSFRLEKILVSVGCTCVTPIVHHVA

## human IL-17A receptor-Fc chimera (R&D Systems) (from UniProt Q96F46 33-320) (Fc fusion)
  IC50 of inhibition of IL-17A induced IL-6 production in NHDF cells (IL-17A 50 ng/ml): 1 nM
  IC50 value (nM), IL-6 production by NHDF cells with IL-17A (1 ng/ml) and TNF alpha: 0.61 nM
